Laboratory results taken from patent US20090175866A1, “TREATMENT OF B-CELL MALIGNANCIES” (priority 2004, published 2009).

What was measured:
Type in all cases: cell-based, human
ERK1/2 phosphorylation = ERK1/2 phosphorylation in aFGF-stimulated UTMC2 cells (flow cytometry)
Text: FIG. 3 is a flow cytometry chart showing phosphorylation of ERK (Extracellular signal-regulated protein kinase) in UTMC2 cells. The filled histogram represents UTMC2 without FGF stimulation (unstimulated); the light line represents cells stimulated with FGF and treated with a control antibody (FGF/vehicle); the dark line represents cells stimulated with FGF and treated with PRO-001 (FGF/PRO-001).
Determination of ERK1/2 phosphorylation by flow cytometry has been described previously (Chow S, et al., Cytometry 2001; 46:72-78). Cells were serum-starved overnight and then stimulated with 30 ng/ml of aFGF and 10 μg/ml heparin for 10 minutes at 37° C. The cells were immediately fixed by adding 10% formaldehyde directly into the culture medium to obtain a final concentration of 2%. Cells were incubated in fixative for 10 min at 37° C. then on ice for an additional 2 minutes. The cells were permeabilized by adding ice-cold methanol (to a final concentration of 90%) while vortexing and incubated on ice for 30 minutes. […] Flow cytometry was performed on a FACSCaliber® flow cytometer (BD Biosciences, San Jose, Calif.) and analyzed using Cellquest® software (Becton Dickinson).

UTMC2 cells = assay: Apoptosis of UTMC2 cells co-cultured with bone marrow stroma cells (annexin V); conditions: 5 μg/ml, 72 hours (FIG. 5 legend)
Description: FIG. 5 is a graph showing apoptosis of UTMC2 cells in response to treatment with PRO-001 in the presence of BMSCs (stroma). BMSCs alone (stroma) or BMSCs together with UTMC2 cells (stroma/UTMC2) were cultured with control antibody or 5 μg/ml PRO-001 for 72 hours and apoptosis was assessed by means of a flow cytometry assay of annexin V binding and propidium iodide exclusion. Values represent means of quadruplicate cultures ±SD.
For studies of apoptosis, cells were seeded at an initial density of 2.5×10^5/ml in 6 well plates coated with BMSCs and supplemented with control (vehicle or antibody) or 5 μg/ml PRO-001 and cultured for […]. Apoptosis was determined by Annexin V staining (Boehringer Mannheim, Indianapolis, Ind.) and analyzed by flow cytometry. Annexin V is a protein that binds specifically to phosphotidyl-serine in the cell membrane. Binding occurs once the membrane has started to break down and the phospholipids are released into the extracellular media.

8226 cells = assay: Viability of 8226 myeloma cells (MTT); conditions: 5 μg/ml, cells lack FGFR3 expression
Text: FIG. 2 is a graph showing the viability of human myeloma cell lines in the presence of PRO-001. Viability is reported as the ratio between the optical density (OD) in the presence of FGF±inhibitor and the OD in the absence of FGF.
Non-transformed rat chondrocyte cell line expressing PGFR3 in an inducible manner (RCJ-FGFR3) has been described previously (Rauchenberger R. et al. J. Biol. Chem. 2003; 278:38194-205). Cells were maintained in α-Minimum Essential Media supplemented with 15% fetal calf serum (FCS), 2 mM L-Glutamine, 100 U/ml penicillin, 100 μg/ml streptomycin, 600 μg/ml G418 (Gibco BRL, Ontario, Canada), 2 μg/ml Tetracyclin (Sigma, Ontario, Canada), and 50 μg/ml HygromycinB (Gibco BRL). […]
Cell viability was assessed by 3-(4,5-dimethylthiazol)-2,5-diphenyl tetrazolium (MTT) or (2,3-bis(2-methoxy-4-nitro-5-sulphophenyl)-5-[(phenylamino) carbonyl]-2H-tetrazolium hydroxide (XTT) dye absorbance where indicated. Cells were seeded in 96-well plates at a density of 20,000 (FDCP-1 cells), 5,000 (B9 cells) or 25,000 cells (MM cell lines) per well in culture medium. Cells were incubated in the absence or presence of one of the following cytokines: 10 ng/ml FGF9 and 5 μg/ml heparin, 1% murine IL-6, 50 ng/ml IGF-1 or 50 ng/ml human IL-6 where indicated and increasing concentrations of PRO-001, control antibody (purified human Fab) or 100 nM PD173074. […]

B1: PRO-001: human anti-FGFR3 Fab from HuCAL library; VH-CDR3 SEQ ID NO:1, VL-CDR3 SEQ ID NO:10; VH SEQ ID NO:19, VL SEQ ID NO:28 (antibody, V domains shown)
VH: QVQLQQSGPGLVKPSQTLSLTCAISGDSVSSNSAAWNWIRQSPGRGLEWLGRTYYRSKWYNDYAVSVKSRITINPDTSKNQFSLQLNSVTPEDTAVYYCARSYYPDFDYWGQGTLVTVSS
VL: DIELTQPPSVSVAPGQTARISCSGDALGDKYASWYQQKPGQAPVLVIYDDSDRPSGIPERFSGSNSGNTATLTISGTQAEDEADYYCQSYDGPDLWVFGGGTKLTVLGQ
Levels of phosphorylated ERK in aFGF-stimulated UTMC2 cells (ERK1/2 phosphorylation): return to those of unstimulated cells | Apoptosis of UTMC2 cells co cultured with BMSC (UTMC2 cells): induces a high level of apoptosis | Cell growth of 8226 cells in the presence of FGF (8226 cells): resistant
